Data set [1] has as its target T1, PARC6^685–819 as part of the PARC6^685–819–PDV1^263–272 fusion protein (Arabidopsis thaliana, UniProt Q8VY16 685-819).
T1 sequence (looked up): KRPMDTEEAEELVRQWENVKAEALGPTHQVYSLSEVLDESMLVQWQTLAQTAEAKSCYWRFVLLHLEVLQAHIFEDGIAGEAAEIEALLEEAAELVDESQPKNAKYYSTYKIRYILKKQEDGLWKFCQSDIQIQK
Kind of data set: crystal structure.

The data set “SEC-MALS” deals with the molecule itself. As to the kind of experiment: SEC-MALS.

DHLDVMMARG (peptide, UniProt Q9FK13 263-272, looked up) [PDV1C (PDV1^263–272) as part of the PARC6^685–819–PDV1^263–272 fusion protein]: the binding result in data set [1] is “binds”.

B1: PARC6^640–819 (PARC6C), C-terminal domain of PARALOG OF ARC6 (domain or fragment, Arabidopsis thaliana, UniProt Q8VY16 640-819, looked up)
chain: NGIVGNIKVLIDMLKMHCGEHPDALYLKSSGQSATSLSHSASELHKRPMDTEEAEELVRQWENVKAEALGPTHQVYSLSEVLDESMLVQWQTLAQTAEAKSCYWRFVLLHLEVLQAHIFEDGIAGEAAEIEALLEEAAELVDESQPKNAKYYSTYKIRYILKKQEDGLWKFCQSDIQIQK
modifications: intramolecular disulfide bond C657-C741 under oxidized conditions
As usually defined, the stoichiometry N is a count of units in the complex or per binding partner. In the case of B1, the “stoichiometry N” value in the data set “SEC-MALS” is 2.

(Values after PMC9945983 (Proceedings of the National Academy of Sciences of the …, 2023).)
